# Reference: the nanobody polyreactivity screen of Harvey et al. (2022)
# Assay: yeast display, Sf9 membrane polyspecificity reagent, FACS + sequencing; frameworks hold sequencing errors
# Method in brief: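 Polyreactivity labels are assigned by the sorting gate from which each nanobody was recovered. The gates were low and high (top ~1%), set on anti-HA fluorescence for expression and streptavidin fluorescence for reagent binding. Before sorting, galactose-induced (36–48 hours) yeast display cells were stained for 1 hour at 4 °C with 10% biotinylated, detergent-solubilized Sf9 membrane reagent.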
row,Sequence,polyreactivity (PSR sort gate)
1,QVQLVESGGGLVQAGGSLRLSCAASGSTNRAYAMGWYRQAPGKERELVAAISYSGDSTYYADSVKGRFTISRDNAKNTVYLQMNSLKPEVTAVYYCNTAVWGPHRYDYWGQGTQVTVSS,low polyreactivity
2,QVQLVESGGGLVQAGGSLRLSCAASGSTPVYAMGWYRQAPGKERELVAAIRRRASSTYYADSVKGRFTISRDNAKNPVYLQMNSLKPEDTAVYYCAVGRVNGVLLGYWGQGTQVTVSS,high polyreactivity
3,QVQLVESGGGLVQAGGSLRLSCAASGSTQYGYAMGWYRQAPRKERELVAAINTGGSTNYADSVKGRFSISRDNAKNSVYLQMNSLKPEDTAVYYCAADYEWDAFSYDYWGQGTQVTVSS,low polyreactivity
4,QVQLVESGGGLVQAGGSLRLSCAASGSTSDINAMGWYRQAPGKERELVAVITFSGGSTNYADSVKGRFTISRDNAKNTVYLQMNSLKPEDTAVYYCNADTLTTTRRFNPYDYWGQGTQVTVSS,low polyreactivity
5,QVQLVESGGGLVQAGGSLRLSCAASGSTSGFYAMGWYRQAPGKERELVAAIDVSGGSTYYADSVKGRFTISRDNAKNTVYLQIHSLKPEDTAVYYCAAYRRNVWSARYGYWGQGTQVTVSS,high polyreactivity
6,QVQLVESGGGLVQAGGSLRLSCAASGSTSGIYAMGWSRQAPGKERELVAAIDTSGGSTYADSVKGRFTISRDNAKNTVYLQMNSLKPEATAVYYCARTWGLRYRWSYGRSRYNFWGQGTQVTVSS,low polyreactivity
7,QVQLVESGGGLVQAGGSLRLSCAASGSTSGKNAMGWYRQAPGKERELVAAIRNSGGTTYYADSVKGRFTISRDNAKNTVYLQMNSLKPEDTAVYYCATRYYLKFLDGYNYWGQGTQVTVSS,high polyreactivity
8,QVQLVESGGGLVQAGGSLRLSCAASGSTSGRNVMGWYRQSPGKERELVAAISSRGGSTYYADSVKGRFTISRDNEKNTVYLQMNSLKPEDTAVYYCASRYGAYSGYDYWGQGTQVTVSS,high polyreactivity
9,QVQLVESGGGLVQAGGSLRLSCAASGSTSIYYTMGWYRQAPGKERELVAYADSVKGRFTISRDNAKNTVYLQMNSMKPEDTEVYFCAAPRTYYSELTSPYDYWGQGTQVTVSS,low polyreactivity
10,QVQLVESGGGLVQAGGSLRLSCAASGSTSLGYAMGWYRQAPGKERELVASISWTGGGTYYADSVKGRFTLSRDNAKNTVYLQMNSLKPDDTAVYYCAADLTGYHPYIYGYWGQGTQVTVSS,low polyreactivity
11,QVQLVESGGGLVQAGGSLRLSCAASGSTSNVYAMGWYRQAPGKERELVAAIRWSGGNTYYADSVKGRFTISRDNAKNTFYLQMNSLKPEDTAVYYCAAFYRYVSTIFDYWGQGTQVTVSS,high polyreactivity
12,QVQLVESGGGLVQAGGSLRLSCAASGSTSPFNAMGWYRQAPGKERELVASITSSGSTNYADSVKGLFTISRDNAKYTVYFQMNSLKPEDTAVYYCATEGVVSETIYDYWGQGSQVTVSS,low polyreactivity
13,QVQLVESGGGLVQAGGSLRLSCAASGSTSPFYVMGWYRQAPGKERELVAAISYSGGSTYYADSVKGRFTISRDNAKNTVYLQMISLKPEDTAVYYCAARYRLTYGLYGYWGQGTQVTVSS,high polyreactivity
14,QVQLVESGGGLVQAGGSLRLSCAASGSTSPGYAMGWYRLEPGKERELVAAITFRGTRTYYADSVKGRFTISRDNAKKTVYLLMNSLKPEDTAVYYCNVVGYGPNRGRVDYWGQGTQVTVSS,high polyreactivity
15,QVQLVESGGGLVQAGGSLRLSCAASGSTSPGYAMGWYRQAPGKERELVAAITFRGTRTYYSDSVKGRFTISRDNAKNTVYLQMNSQKPDDTAVYYCNVVGYGPNRGRVDYCGQGTQVTVSS,high polyreactivity
16,QVQLVESGGGLVQAGGSLRLSCAASGSTSPYYDRGWSRQAPGKERELVAAITSGGSTNYADSVKGRFTISRDYAKNSVYLQMNSLKPEDTAVYYCATDWSDDLWTWYYYWGQGTQVTVSS,high polyreactivity

row,Sequence,polyreactivity (PSR sort gate)
1,QVQLVESGGGLVQAGGSLRLSCAASGSTSRQYAMGWYRQAPGKERELVAAITWSGASTNYADSVKGRFTISRDNAKNTVYLQMNSLKREDTAVYYCAAYRWVYPDVIYDYWGQGTQVTVSS,high polyreactivity
2,QVQLVESGGGLVQAGGSLRLSCAASGSTSSVYAMGWYRQAPGKERELVAAISYRGARTYYADSVKGRFTISRDNAKNTVYFQMNSLKPEDTAVYYCAAENYPRRPRYDYWGQATQVTVSS,high polyreactivity
3,QVQLVESGGGLVQAGGSLRLSCAASGSTSTWYAMGWYRQAPGKERELVATITGSGDTTYYADSVKGRFTISRDNAKNTVYLQMNSLKPEDTAVYYCAADYDPDDDTYDYWGQGTQVTVSS,low polyreactivity
4,QVQLVESGGGLVQAGGSLRLSCAASGSTSTYYAMGWYRQAPWKERELVAANTLGAGRTYADSEKGRFTISRDNAKNTVSLQMNSLKPEDTAVYYCAADGYISVNYLRYDYWGQGTQVTVSS,low polyreactivity
5,QVQLVESGGGLVQAGGSLRLSCAASGSTSVDYTMGLYRQAPGKERELVAAIDYNGDSTYYADSVKGRFTISRDNAKNTVYLQMNSLKPEDTAVYYCAADYLSFVVVKLYGYWGQGTQVTVSS,low polyreactivity
6,QVQLVESGGGLVQAGGSLRLSCAASGSTSVKYAMGWYRQAPGKERELVAAIRKRGDSTYYADSVKGRFTISRDNAKNTVYLQMNSLKPEDTAVYYCAAQYLRGRGYWGQGTQVTVSA,low polyreactivity
7,QVQLVESGGGLVQAGGSLRLSCAASGSTSVVNARGWSRPAPGKERELVAAISTGGASTYYADSVKGRYTISRDNAKNTVYLQMNSLKPEDTAVYYCAADLGYEYDYWGQCTQVTVSS,high polyreactivity
8,QVQLVESGGGLVQAGGSLRLSCAASGSTSVYYAMGWYRQAPGKERELVAAITSGGRTYYADSVKGRFTISRDNAKNTVYLQMNSLKPEDTAVYYCNKGLYYFLPTKFRLDYWGQGTQVTVSS,high polyreactivity
9,QVQLVESGGGLVQAGGSLRLSCAASGSTSYFNVKGWYRQAPGKERELVAAISWSGGSTYADSVKGRFTISRDNAKNTVYLQMNSLKREDTAVYYCNKDYGYVQLRFYGPGYYWGQGTQVTVSS,low polyreactivity
10,QVQLVESGGGLVQAGGSLRLSCAASGSTSYRYAMGWYRQAPGKERELVATITSGGRTYYADSVKGRFTISRDNAKNTVYLQMNSLKPEDTAVYYCNKLNYWYKHYYWGQGTQVTVSS,high polyreactivity
11,QVQLVESGGGLVQAGGSLRLSCAASGSTVDFNAMGWYRQAPGKERELVAGISRDGGSTYYADSVKGRFTISRDYAKNTVYLEMNSLKPEDTAVYYCAVEAWSVPPYDYWGQGTQVTVSS,low polyreactivity
12,QVQLVESGGGLVQAGGSLRLSCAASGSTVGSNAMGWYRQAPGKERELVAAISSDGSTNYADSVKGRFTISRDNAKNTVSLQMNSLKPEETAVYYCKAVVQDADWGYDYWGQGTQVTLSS,low polyreactivity
13,QVQLVESGGGLVQAGGSLRLSCAASGSTVNFYAMGWYRQAPGKERELVAAISWRGNTYYADSVKGRFTISRDNAKNTVYLQITSLKPEDTAVSYCDAYEWLAYTSAWYGYWGQGTQVTVSS,high polyreactivity
14,QVQLVESGGGLVQAGGSLRLSCAASGSTWIYAMGWYRQAPGKERELVAAISGSGDRTYYADSVKGRFTISRDNAKNTVYLLMNSLQPEDTAVYFCATVYYKSGKYDYWGQGTQVTVSS,high polyreactivity
15,QVQLVESGGGLVQAGGSLRLSCAASGSTYGGYAMGWYRQAPGKETELVAAISRSGSSTYYADSVKGRFTISRDNAKNTVYLQMNSLKPEDTAVYYCAKRRPALRWIYYYWGQGTQVTVSS,high polyreactivity
16,QVQLVESGGGLVQAGGSLRLSCAASGSTYLYYAMGWYRQAPGKEREMVAAIWSDGSTRYADSVKGRFTISRDNAKNTVYLQMNSLKPEDTAVYYCAVYNYWGQGTQVTVSS,low polyreactivity
